Laboratory results as given in patent US20180125988.

Legend:
XTEN_AE864 = target: T1, XTEN_AE864
T1 chain: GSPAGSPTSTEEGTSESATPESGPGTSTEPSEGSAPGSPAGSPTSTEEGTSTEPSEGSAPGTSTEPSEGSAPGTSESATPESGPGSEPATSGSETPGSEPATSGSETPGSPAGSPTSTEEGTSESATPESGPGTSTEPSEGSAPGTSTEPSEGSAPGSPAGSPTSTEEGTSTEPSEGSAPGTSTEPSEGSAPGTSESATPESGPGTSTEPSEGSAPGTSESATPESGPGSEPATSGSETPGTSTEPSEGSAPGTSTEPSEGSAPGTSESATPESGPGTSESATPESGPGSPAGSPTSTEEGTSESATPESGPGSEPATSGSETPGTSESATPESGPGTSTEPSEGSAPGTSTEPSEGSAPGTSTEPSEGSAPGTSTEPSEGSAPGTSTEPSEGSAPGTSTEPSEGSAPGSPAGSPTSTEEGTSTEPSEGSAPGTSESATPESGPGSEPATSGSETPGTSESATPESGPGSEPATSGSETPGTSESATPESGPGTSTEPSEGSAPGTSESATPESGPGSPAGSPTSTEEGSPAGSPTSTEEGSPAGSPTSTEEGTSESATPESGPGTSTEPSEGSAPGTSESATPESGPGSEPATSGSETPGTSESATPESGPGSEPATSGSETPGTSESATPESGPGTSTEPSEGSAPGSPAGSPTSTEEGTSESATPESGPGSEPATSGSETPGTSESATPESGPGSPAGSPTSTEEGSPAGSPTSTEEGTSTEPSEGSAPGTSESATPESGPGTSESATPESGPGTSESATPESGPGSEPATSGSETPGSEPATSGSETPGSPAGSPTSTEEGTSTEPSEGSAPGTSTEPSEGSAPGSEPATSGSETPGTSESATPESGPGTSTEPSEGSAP

[1] = target: T2, AC1254 (CCD1-BSRS1-AE713)
T2 chain: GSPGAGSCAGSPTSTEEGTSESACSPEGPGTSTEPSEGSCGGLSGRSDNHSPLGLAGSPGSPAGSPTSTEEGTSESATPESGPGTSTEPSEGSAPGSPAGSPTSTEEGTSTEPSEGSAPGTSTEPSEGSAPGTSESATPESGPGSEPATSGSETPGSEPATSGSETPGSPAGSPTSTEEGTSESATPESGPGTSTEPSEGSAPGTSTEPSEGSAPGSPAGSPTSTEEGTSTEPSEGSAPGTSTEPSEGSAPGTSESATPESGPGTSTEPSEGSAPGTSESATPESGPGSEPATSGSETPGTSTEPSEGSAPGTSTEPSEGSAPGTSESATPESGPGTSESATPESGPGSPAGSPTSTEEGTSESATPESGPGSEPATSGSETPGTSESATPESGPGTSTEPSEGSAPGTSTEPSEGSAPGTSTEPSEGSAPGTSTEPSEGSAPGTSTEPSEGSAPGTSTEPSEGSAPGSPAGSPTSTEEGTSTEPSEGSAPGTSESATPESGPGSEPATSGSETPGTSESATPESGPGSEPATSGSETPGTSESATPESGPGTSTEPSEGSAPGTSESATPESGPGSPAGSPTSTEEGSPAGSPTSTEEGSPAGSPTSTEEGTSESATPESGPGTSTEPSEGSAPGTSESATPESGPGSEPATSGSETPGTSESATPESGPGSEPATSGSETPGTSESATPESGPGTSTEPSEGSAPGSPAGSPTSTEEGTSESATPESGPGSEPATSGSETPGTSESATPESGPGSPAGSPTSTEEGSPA

B1: human neutrophil elastase (protein)
chain: IVGGRRARPHAWPFMVSLQLRGGHFCGATLIAPNFVMSAAHCVANVNVRAVRVVLGAHNLSRREPTRQVFAVQRIFENGYDPVNLLNDIVILQLNGSATINANVQVAQLPAQGRRLGNGVQCLAMGWGLLGRNRGIASVLQELNVTVVTSLCRRSNVCTLVRGRQAGVCFGDSGSPLVCNGLIHGIASFVRGGCASGLYPDAFAPVAQFVNWIDSIIQ
proteolytic degradation (SDS-PAGE), elastase:XTEN 1:100, 2 h, 37 C (XTEN_AE864): XTEN_AE864 was completely digested by neutrophil elastase at the 1:100 molar ratio
proteolytic degradation (SDS-PAGE), elastase:XTEN 1:1000, 2 h, 37 C (XTEN_AE864): Partial degradation was observed for XTEN_AE864 when incubating with neutrophil elastase at the 1:1000 molar ratio

B2: recombinant human MMP-7 (protein)
chain: YSLFPNSPKWTSKVVTYRIVSYTRDLPHITVDRLVSKALNMWGKEIPLHFRKVVWGTADIMIGFARGAHGDSYPFDGPGNTLAHAFAPGTGLGGDAHFDEDERWTDGSSLGINFLYAATHELGHSLGMGHSSDPNAVMYPTYGNGDPQNFKLSQDDIKGIQKLYGKRSNSRKK
proteolytic cleavage at the PCM (SDS-PAGE, C4 RP-HPLC); enzyme:substrate 1:200, 2 h, 37 C [1]: all proteases tested here cleaved the construct as intended, with varying degree of catalytic efficiency

B3: recombinant mouse MMP-9 (protein)
chain: FQTFKGLKWDHHNITYWIQNYSEDLPRDMIDDAFARAFAVWGEVAPLTFTRVYGPEADIVIQFGVAEHGDGYPFDGKDGLLAHAFPPGAGVQGDAHFDDDELWSLGKGVVIPTYYGNSNGAPCHFPFTFEGRSYSACTTDGRNDGTPWCSTTADYDKDGKFGFCPSERLYTEHGNGEGKPCVFPFIFEGRSYSACTTKGRSDGYRWCATTANYDQDKLYGFCPTRVDATVVGGNSAGELCVFPFVFLGKQYSSCTSDGRRDGRLWCATTSNFDTDKKWGFCPDQGYSLFLVAAHEFGHALGLDHSSVPEALMYPLYSYLEGFPLNKDDIDGIQYLYGRGSKPDPRPPATTTTEPQPTAPPTMCPTIPPTAYPTVGPTVGPTGAPSPGPTSSPSPGPTGAPSPGPTAPPTAGSSEASTESLSPADNPCNVDVFDAIAEIQGALHFFKDGWYWKFLNHRGSPLQGPFLTARTWPALPATLDSAFEDPQTKRVFFFSGRQMWVYTGKTVLGPRSLDKLGLGPEVTHVSGLLPRRLGKALLFSKGRVWRFDLKSQKVDPQSVIRVDKEFSGVPWNSHDIFQYQDKAYFCHGKFFWRVSFQNEVNKVDHEVNQVDDVGYVTYDLLQCP
proteolytic cleavage at the PCM (SDS-PAGE, C4 RP-HPLC); enzyme:substrate 1:6711, 2 h, 37 C [1]: all proteases tested here cleaved the construct as intended, with varying degree of catalytic efficiency

B4: recombinant human matriptase (protein)
chain: VVGGTDADEGEWPWQVSLHALGQGHICGASLISPNWLVSAAHCYIDDRGFRYSDPTQWTAFLGLHDQSQRSAPGVQERRLKRIISHPFFNDFTFDYDIALLELEKPAEYSSMVRPICLPDASHVFPAGKAIWVTGWGHTQYGGTGALILQKGEIRVINQTTCENLLPQQITPRMMCVGFLSGGVDSCQGDSGGPLSSVEADGRIFQAGVVSWGDGCAQRNKPGVYTRLPLFRDWIKENTGV
proteolytic cleavage at the PCM (SDS-PAGE, C4 RP-HPLC); enzyme:substrate 1:12.5, 2 h, 37 C [1]: all proteases tested here cleaved the construct as intended, with varying degree of catalytic efficiency
